The values that follow come from article PMC9242591 (Science Advances, 2022).

One series addresses His-NLP7 (RWP-RK) (Arabidopsis thaliana, UniProt Q84TH9 535-733). Description: EMSA. (In EMSA bound probe runs differently from free probe, usually more slowly.)
Series [1] has as its target T1, His-tagged NIN-LIKE PROTEIN 7 (His-NLP7) (Arabidopsis thaliana, UniProt Q84TH9 1-959).
T1 sequence (looked up): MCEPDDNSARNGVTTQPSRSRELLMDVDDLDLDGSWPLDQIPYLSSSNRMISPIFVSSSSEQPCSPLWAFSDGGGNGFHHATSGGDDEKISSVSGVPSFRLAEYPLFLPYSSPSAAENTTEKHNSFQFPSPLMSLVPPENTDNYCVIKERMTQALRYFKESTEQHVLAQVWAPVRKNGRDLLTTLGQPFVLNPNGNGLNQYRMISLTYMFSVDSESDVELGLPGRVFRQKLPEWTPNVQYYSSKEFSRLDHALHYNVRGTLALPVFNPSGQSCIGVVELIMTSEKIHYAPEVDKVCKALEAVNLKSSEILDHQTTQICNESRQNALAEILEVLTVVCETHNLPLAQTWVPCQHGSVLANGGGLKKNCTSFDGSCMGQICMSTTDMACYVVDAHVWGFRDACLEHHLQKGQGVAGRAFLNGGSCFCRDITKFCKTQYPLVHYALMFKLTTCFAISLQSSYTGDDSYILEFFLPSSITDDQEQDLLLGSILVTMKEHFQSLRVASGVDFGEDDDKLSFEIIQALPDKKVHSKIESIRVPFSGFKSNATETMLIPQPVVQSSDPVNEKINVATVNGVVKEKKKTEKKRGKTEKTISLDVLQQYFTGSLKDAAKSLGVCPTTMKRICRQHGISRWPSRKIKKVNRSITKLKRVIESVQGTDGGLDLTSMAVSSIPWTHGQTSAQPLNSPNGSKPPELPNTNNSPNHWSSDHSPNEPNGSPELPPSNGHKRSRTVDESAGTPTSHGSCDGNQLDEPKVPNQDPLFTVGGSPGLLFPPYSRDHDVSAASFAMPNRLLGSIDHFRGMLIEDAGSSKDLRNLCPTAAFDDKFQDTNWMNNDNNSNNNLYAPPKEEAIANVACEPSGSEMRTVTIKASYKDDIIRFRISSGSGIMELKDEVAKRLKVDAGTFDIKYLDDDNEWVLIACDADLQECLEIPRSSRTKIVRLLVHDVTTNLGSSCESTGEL
The series is described as follows: pull-down.

B1: CBF1-NREL probe (dsDNA)
DNA 1: AAAAGTCTCTTTACAAGGGTCAAA
DNA 2: TTTGACCCTTGTAAAGAGACTTTT
As for B1, in the series with His-NLP7 (RWP-RK), the binding result is on record as “binds”.

B2: GST-tagged CALCIUM-DEPENDENT PROTEIN KINASE 28 (GST-CPK28) (enzyme, Arabidopsis thaliana, UniProt Q9FKW4 1-523, looked up)
chain: MGVCFSAIRVTGASSSRRSSQTKSKAAPTPIDTKASTKRRTGSIPCGKRTDFGYSKDFHDHYTIGKLLGHGQFGYTYVAIHRPNGDRVAVKRLDKSKMVLPIAVEDVKREVQILIALSGHENVVQFHNAFEDDDYVYIVMELCEGGELLDRILSKKGNRYSEKDAAVVVRQMLKVAGECHLHGLVHRDMKPENFLFKSAQLDSPLKATDFGLSDFIKPGKRFHDIVGSAYYVAPEVLKRRSGPESDVWSIGVITYILLCGRRPFWDRTEDGIFKEVLRNKPDFSRKPWATISDSAKDFVKKLLVKDPRARLTAAQALSHAWVREGGNATDIPVDISVLNNLRQFVRYSRLKQFALRALASTLDEAEISDLRDQFDAIDVDKNGVISLEEMRQALAKDLPWKLKDSRVAEILEAIDSNTDGLVDFTEFVAAALHVHQLEEHDSEKWQLRSRAAFEKFDLDKDGYITPEELRMHTGLRGSIDPLLDEADIDRDGKISLHEFRRLLRTASISSQRAPSPAGHRNLR
B2: the binding result in series [1] was “binds”.
